Test results: patent US20040203128

Tests used:
[1] = tested on: GST-2E11 recombinant protein (fusion between a KCNQ2-15b polypeptide comprising exons 13, 14 and 15b and GST)
[2] = tested on: GST protein (negative control, from pGEX2TK) [GST: P08515]
Chain of GST protein (negative control, from pGEX2TK) [GST: P08515] (P08515 whole entry): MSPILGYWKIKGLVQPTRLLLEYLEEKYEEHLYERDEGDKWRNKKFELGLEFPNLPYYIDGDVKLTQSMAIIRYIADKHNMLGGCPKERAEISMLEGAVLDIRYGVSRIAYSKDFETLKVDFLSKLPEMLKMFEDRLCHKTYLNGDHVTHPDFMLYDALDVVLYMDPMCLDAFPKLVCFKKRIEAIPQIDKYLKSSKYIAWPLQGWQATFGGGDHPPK

Chain of GST-2E11 recombinant protein (fusion between a KCNQ2-15b polypeptide comprising exons 13, 14 and 15b and GST) (chain, as listed by the source): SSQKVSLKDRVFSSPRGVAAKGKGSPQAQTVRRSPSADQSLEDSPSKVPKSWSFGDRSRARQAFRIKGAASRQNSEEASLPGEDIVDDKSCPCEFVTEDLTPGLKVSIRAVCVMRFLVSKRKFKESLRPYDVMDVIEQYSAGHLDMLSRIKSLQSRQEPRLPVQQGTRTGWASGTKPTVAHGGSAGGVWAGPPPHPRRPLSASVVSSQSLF

| Substance | in vitro dephosphorylation, loss of the 32P band, with or without okadaic acid [1] | in vitro phosphorylation, 32P autoradiography after SDS-PAGE [2] | in vitro phosphorylation, 32P autoradiography after SDS-PAGE [1] |
| --- | --- | --- | --- |
| PP2A phosphatase in whole cell extracts of the human glioblastoma, astrocytoma cell line HTB-14 | In the line loaded with GST-2E11 fusion proteins incubated in the presence of HTB-14 cell extracts, the band had an extremely weaker intensity |  |  |
| Protein Kinase A Catalytic Subunit (PKA from bovine heart, Sigma) |  | No bands appeared in the three lines corresponding to the negative controls | Thus the GST-2E11 protein is phosphorylated by GSK-3β and PKA in vitro |
| recombinant GSK-3β kinase (New England Biolabs) |  | No bands appeared in the three lines corresponding to the negative controls | Thus the GST-2E11 protein is phosphorylated by GSK-3β and PKA in vitro |
